Here are results for six sequences from the supplement of paper PMC5998384.

The test system of data set [1] is HeLa Kyoto. As to the kind of experiment: solubility in G1/S (NP-40 vs SDS abundance) (log2 ratio); higher = more soluble. As to conditions: cell cycle stage: G1/S.
Data set [2] has as its system HeLa Kyoto. Kind of data set: melting temperature (median over replicates), in situ; higher = more thermally stable.
Data set [3] relates to HeLa Kyoto. As to the kind of experiment: solubility change mitosis vs G1/S (difference of NP-40 vs SDS log2 ratios) (log2 ratio difference); higher = more soluble in mitosis.
Data set [4] relates to HeLa Kyoto. As to the kind of experiment: thermal stability score vs G1/S (z-score of summed log2 fold changes over temperatures); higher = more thermally stable than in G1/S.
Setting [5] is: cell cycle stage: early G1 (4.5 h after nocodazole release).
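Throughout, for melting temperature (median over replicates), in situ: HeLa Kyoto cells synchronized by double thymidine or nocodazole block, proteins quantified by TMT10plex mass spectrometry, three independent biological replicates.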
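Throughout, for solubility change mitosis vs G1/S (difference of NP-40 vs SDS log2 ratios): synchronized HeLa Kyoto cells (double thymidine block for G1/S, nocodazole release for mitosis), protein amounts in NP-40 versus SDS lysates quantified by mass spectrometry, three biological replicates.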
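Throughout, for solubility in G1/S (NP-40 vs SDS abundance): HeLa Kyoto cells arrested at G1/S by double thymidine block, proteins quantified by TMT10plex mass spectrometry in mild NP-40 versus SDS extracts, three biological replicates.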
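Throughout, for thermal stability score vs G1/S (z-score of summed log2 fold changes over temperatures): synchronized HeLa Kyoto cells, proteins quantified by TMT10plex mass spectrometry, three biological replicates, mitosis taken 0.5 h after nocodazole release, G1/S directly after double thymidine block.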

As for “MFKNTFQSGFLSILYSIGSKPLQIWDKKVRNGHIKRITDNDIQSLVLEIEGTNVSTTYITCPADPKKTLGIKLPFLVMIIKNLKKYFTFEVQVLDDKNVRRRFRASNYQSTTRVKPFICTMPMRLDDGWNQIQFNLLDFTRRAYGTNYIETLRVQIHANCRIRRVYFSDRLYSEDELPAEFKLYLPVQNKAKQ [CFAP20]”, the “solubility in G1/S (log2)” value in data set [1] was -0.154. Further, the melting temperature in data set [2] (cell cycle stage: G1/S) stood at 50.9 °C; in data set [2] (cell cycle stage: mitosis) it was 51 °C. The “solubility change mitosis (log2)” value in data set [3] is -0.00426. The thermal stability score in data set [4] (setting [5]) is -0.133; in data set [4] (cell cycle stage: mitosis), 0.199.
For “MFLLPLPAAGRVVVRRLAVRRFGSRSLSTADMTKGLVLGIYSKEKEDDVPQFTSAGENFDKLLAGKLRETLNISGPPLKAGKTRTFYGLHQDFPSVVLVGLGKKAAGIDEQENWHEGKENIRAAVAAGCRQIQDLELSSVEVDPCGDAQAAAEGAVLGLYEYDDLKQKKKMAVSAKLYGSGDQEAWQKGVLFASGQNLARQLMETPANEMTPTRFAEIIEKNLKSASSKTEVHIRPKSWIEEQAMGSFLSVAKGSDEPPVFLEIHYKGSPNANEPPLVFVGKGITFDSGGISIKASANMDLMRADMGGAATICSAIVSAAKLNLPINIIGLAPLCENMPSGKANKPGDVVRAKNGKTIQVDNTDAEGRLILADALCYAHTFNPKVILNAATLTGAMDVALGSGATGVFTNSSWLWNKLFEASIETGDRVWRMPLFEHYTRQVVDCQLADVNNIGKYRSAGACTAAAFLKEFVTHPKWAHLDIAGVMTNKDEVPYLRKGMTGRPTRTLIEFLLRFSQDNA [LAP3]”, the “solubility in G1/S (log2)” value in data set [1] amounted to 0.187. For the same sequence, the melting temperature in data set [2] (cell cycle stage: G1/S) is 53.8 °C; in data set [2] (cell cycle stage: mitosis), 52.6 °C. Besides, the “solubility change mitosis (log2)” value in data set [3] was -0.0176. The results for the thermal stability score in data set [4] (setting [5]) and in data set [4] (cell cycle stage: mitosis) were -5.49 and -3.93, respectively.
Regarding “MFLYNLTLQRATGISFAIHGNFSGTKQQEIVVSRGKILELLRPDPNTGKVHTLLTVEVFGVIRSLMAFRLTGGTKDYIVVGSDSGRIVILEYQPSKNMFEKIHQETFGKSGCRRIVPGQFLAVDPKGRAVMISAIEKQKLVYILNRDAAARLTISSPLEAHKANTLVYHVVGVDVGFENPMFACLEMDYEEADNDPTGEAAANTQQTLTFYELDLGLNHVVRKYSEPLEEHGNFLITVPGGSDGPSGVLICSENYITYKNFGDQPDIRCPIPRRRNDLDDPERGMIFVCSATHKTKSMFFFLAQTEQGDIFKITLETDEDMVTEIRLKYFDTVPVAAAMCVLKTGFLFVASEFGNHYLYQIAHLGDDDEEPEFSSAMPLEEGDTFFFQPRPLKNLVLVDELDSLSPILFCQIADLANEDTPQLYVACGRGPRSSLRVLRHGLEVSEMAVSELPGNPNAVWTVRRHIEDEFDAYIIVSFVNATLVLSIGETVEEVTDSGFLGTTPTLSCSLLGDDALVQVYPDGIRHIRADKRVNEWKTPGKKTIVKCAVNQRQVVIALTGGELVYFEMDPSGQLNEYTERKEMSADVVCMSLANVPPGEQRSRFLAVGLVDNTVRIISLDPSDCLQPLSMQALPAQPESLCIVEMGGTEKQDELGERGSIGFLYLNIGLQNGVLLRTVLDPVTGDLSDTRTRYLGSRPVKLFRVRMQGQEAVLAMSSRSWLSYSYQSRFHLTPLSYETLEFASGFASEQCPEGIVAISTNTLRILALEKLGAVFNQVAFPLQYTPRKFVIHPESNNLIIIETDHNAYTEATKAQRKQQMAEEMVEAAGEDERELAAEMAAAFLNENLPESIFGAPKAGNGQWASVIRVMNPIQGNTLDLVQLEQNEAAFSVAVCRFSNTGEDWYVLVGVAKDLILNPRSVAGGFVYTYKLVNNGEKLEFLHKTPVEEVPAAIAPFQGRVLIGVGKLLRVYDLGKKKLLRKCENKHIANYISGIQTIGHRVIVSDVQESFIWVRYKRNENQLIIFADDTYPRWVTTASLLDYDTVAGADKFGNICVVRLPPNTNDEVDEDPTGNKALWDRGLLNGASQKAEVIMNYHVGETVLSLQKTTLIPGGSESLVYTTLSGGIGILVPFTSHEDHDFFQHVEMHLRSEHPPLCGRDHLSFRSYYFPVKNVIDGDLCEQFNSMEPNKQKNVSEELDRTPPEVSKKLEDIRTRYAF [SF3B3]”, the “solubility in G1/S (log2)” value in data set [1] is -0.389. Moreover, the melting temperature in data set [2] (cell cycle stage: G1/S) came out at 52.4 °C; in data set [2] (cell cycle stage: mitosis) it was 51.6 °C. In addition, in data set [3], the “solubility change mitosis (log2)” value is 0.0933. Besides, the thermal stability score in data set [4] (setting [5]) was -1; in data set [4] (cell cycle stage: mitosis), -1.81.
Take “MFPFGPHSPGGDGSAGAGAEEPTPHEGQAAATGPPSPLHPGADATHPPPPARSPRRPGAPSLSPAPRSGELGLPGAPESSTASAPGEPSPPSPPCRRPGPDCRAKSRGRHGLGAGLGGPGARLFGWLKERSLGRGLFVDPARDNFRTMTSLYGSIHPADSVYLSTRTHGAVFNLEYSPDGSVLTVACEQTEVLLFDPISSKHIKTLSEAHEDCVNNIRFLDNRLFATCSDDTTIALWDLRKLNTKVCTLHGHTSWVKNIEYDTNTRLLVTSGFDGNVIIWDTNRYTEDGCPHKKFFHTRFLMRMRLTPDCSKMLISTSSGYLLILHDLDLTKSLEVGSYPILRARRTTSSSDLTTSSSSSGPRVSGSPCHHSDSNSSEKHMSRASQREGVSPRNSLEVVTPEVLGESDHGNCITSLQLHPKGWATLLRCSSNSDDEECTCVYEFQEGAPVRPVSPRCSLRLTHYIEEANVGRGYIKELCFSPDGRMISSPHGYGIRLLGFDKQCSELVDCLPKEASPLRVIRSLYSHNDVVLTTKFSPTHCQIASGCLSGRVSLYQPKF [DCAF10]”: the “solubility in G1/S (log2)” value in data set [1] was -0.0366. Also, the melting temperature in data set [2] (cell cycle stage: G1/S) worked out at 53.7 °C; in data set [2] (cell cycle stage: mitosis) it was 51.2 °C. Further, in data set [3], the “solubility change mitosis (log2)” value was -0.0652. Besides, the figures for the thermal stability score in data set [4] (setting [5]) and in data set [4] (cell cycle stage: mitosis) were -2.74 and -3.62, respectively.
Turning to “MFRFMRDVEPEDPMFLMDPFAIHRQHMSRMLSGGFGYSPFLSITDGNMPGTRPASRRMQQAGAVSPFGMLGMSGGFMDMFGMMNDMIGNMEHMTAGGNCQTFSSSTVISYSNTGDGAPKVYQETSEMRSAPGGIRETRRTVRDSDSGLEQMSIGHHIRDRAHILQRSRNHRTGDQEERQDYINLDESEAAAFDDEWRRETSRFRQQRPLEFRRLESSGAGGRRAEGPPRLAIQGPEDSPSRQSRRYDW [MLF2]”, the “solubility in G1/S (log2)” value in data set [1] came to 0.236. In addition, the melting temperature in data set [2] (cell cycle stage: G1/S) was 46.2 °C. Moreover, in data set [3], the “solubility change mitosis (log2)” value is -0.0421. Besides, the thermal stability score in data set [4] (setting [5]) is 1.43; in data set [4] (cell cycle stage: mitosis), 5.61.
For the sequence “MFRLNSLSALAELAVGSRWYHGGSQPIQIRRRLMMVAFLGASAVTASTGLLWKRAHAESPPCVDNLKSDIGDKGKNKDEGDVCNHEKKTADLAPHPEEKKKKRSGFRDRKVMEYENRIRAYSTPDKIFRYFATLKVISEPGEAEVFMTPEDFVRSITPNEKQPEHLGLDQYIIKRFDGKKISQEREKFADEGSIFYTLGECGLISFSDYIFLTTVLSTPQRNFEIAFKMFDLNGDGEVDMEEFEQVQSIIRSQTSMGMRHRDRPTTGNTLKSGLCSALTTYFFGADLKGKLTIKNFLEFQRKLQHDVLKLEFERHDPVDGRITERQFGGMLLAYSGVQSKKLTAMQRQLKKHFKEGKGLTFQEVENFFTFLKNINDVDTALSFYHMAGASLDKVTMQQVARTVAKVELSDHVCDVVFALFDCDGNGELSNKEFVSIMKQRLMRGLEKPKDMGFTRLMQAMWKCAQETAWDFALPKQ [MICU1]”, the “solubility in G1/S (log2)” value in data set [1] is -0.299. For the same sequence, the melting temperature stood at 52.2 °C in data set [2] (cell cycle stage: G1/S) and 51.3 °C in data set [2] (cell cycle stage: mitosis). In data set [3], the “solubility change mitosis (log2)” value was -0.00566. In addition, the thermal stability score in data set [4] (setting [5]) came out at 1.14; in data set [4] (cell cycle stage: mitosis) it was 1.13.
